Data reported in paper PMC8269962 (Nature, 2021).

Biological target: T1, B/Vic-I53_dn5 nanoparticle (Influenza B virus B/Brisbane/60/2008 …, strain)
T1 chain: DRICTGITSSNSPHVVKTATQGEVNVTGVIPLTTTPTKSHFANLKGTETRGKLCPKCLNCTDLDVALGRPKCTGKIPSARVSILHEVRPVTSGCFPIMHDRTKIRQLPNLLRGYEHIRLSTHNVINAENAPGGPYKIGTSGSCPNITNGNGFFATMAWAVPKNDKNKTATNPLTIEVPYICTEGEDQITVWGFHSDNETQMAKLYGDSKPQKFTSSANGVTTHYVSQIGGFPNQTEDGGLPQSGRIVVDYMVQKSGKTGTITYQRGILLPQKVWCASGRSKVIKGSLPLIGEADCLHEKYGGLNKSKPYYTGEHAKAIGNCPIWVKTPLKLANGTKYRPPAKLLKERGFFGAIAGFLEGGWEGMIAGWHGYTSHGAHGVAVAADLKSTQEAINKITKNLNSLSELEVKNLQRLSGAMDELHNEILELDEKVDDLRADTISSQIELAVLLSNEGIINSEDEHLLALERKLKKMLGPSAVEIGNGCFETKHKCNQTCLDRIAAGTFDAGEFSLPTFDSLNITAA
Assay: ELISA

B1: CR8071 (antibody, V domains shown)
VH: QVQLVQSGAEVKKPGASVRVSCRASGYIFTESGITWVRQAPGQGLEWMGWISGYSGDTKYAQKLQGRVTMTKDTSTTTAYMELRSLRYDDTAVYYCARDVQYSGSYLGAYYFDYWSPGTLVTVSS
VL: QSVLTQPPSASGTPGQRVTISCSGSSSNIGTNYVYWYQQFPGTAPKLLIYRSYQRPSGVPDRFSGSKSGSSASLAISGLQSEDEADYYCATWDDSLDGWVFGGGTKLTVL
  binding result: binds
